Measured values published in the DeepSol protein solubility set.

Test: soluble on expression in E. coli; label from the status in PepcDB or PDB records

Sequence	soluble on expression in E. coli
MAKKSSGSAPSRASGRSGKQTTHFQVVHDATKHRAKRSKSSKSGDSKSSSQDASVKKILDHKLFNTHYVEYNVLLSNGRKMMATEFDFEGKKEQKLLADYKYKITNQDDDPDEDFAVEKIIAHRFSGKKNKPLFLVMWRGYPNPVSHSEMWENELSNCKDLLEAYKDSHDMKPPPVKKSNKKKGSKKSPKKSAKSKDDDSSDEEEEEEVKEKSPKKSSKSTKRAASDDDEEEEPVATKKSKKSKRAETPEEEDDEEEEVVKTPKKTKKSKRAETPEEEDEVEEEVVKTPKKSKSSKSPKKSKRAETSDEEDEDEEDEKEAPKSSKKQEKAKSSKRVAEDSGNEEEDQDNTSGSGSEGEEEEEEASSNGKRKSRH	not soluble
GPGSMSPRTSERILALGVRRLRIRSSSTASSSCNGVVEFSTCGGAGGPSYRPLAAMAMIANIQAVAFTDSRRSVFQNKKTLPSPHGRNITPDAAETKGRALFSDSNSECFPADLDPPSASQLDRILPSLNQLRDEIPSSEYVEELVRRQGVSTDLWSNGEKNNSADDDDE	not soluble
MDYTASYYTDEELAKLFKAAKGDPLELPIVLAAYYGLRRSEIIGLRWDAIDFNPDDPKITIQFTVTEVNFGDGQGNVIIEKEGTKSKASKRTLPLVKPIADLLLQKKKDIENNRRLCGSCYNDKYLDFVHVNEIGERMKPNYISQHFALLLEKHGLKKIRFHDLRHSCASLLYANGVSLKQIQEWLGHSDISTTANIYTHLDYNSKIATANAILPVLFDQLEHHHHHH	not soluble
MLGDRCAPIKASGVLIGDSVLVTDVEQARSLYSCGYYGQPLDVEKPRGADFEGPLRLSLIESLYLAEKGVLEVAKPDGSSVGVEDLRTAVRGNPRFSMLYNIYRDLRERGFVVRSGLKFGSDFAVYRLGPGIDHAPFIVHAYSPEDNIDPVEIVRAGRLSHSVRKKFVFAVTRGGDVSYLMIDWFRP	soluble
KMERKNVWHHRKKEEIEAFSKEYMEFMSKAKTERMTVKEIKRILDESGFVPLEDFAGDPMNMTVYAVNRGKAIAAFRVVDDLKRGLNLVVAHIDSPRLDFKPNPLIEDEQIALFKTHYYGGIKKYHWLSIPLEIHGVLFKNDGTEIEIHIGDKPEDPVFTIPDLLPHLDKEDAKISEKFKGENLMLIAGTIPLSGEEKEAVKTNVLKILNEMYGITEEDFVSGEIEVVPAFSPREVGMDRSLIGAYGQDDRICAYTALRALLSANPEKSIGVIFFDKEEIGSDGNTGAKARFYLKALRQILKMQGAKDSEFVLDEVLENTSVISGDVCAAVNPPYKDVHDLHNAPKLGYGVALVKYTGARGKYSTNDAHAEFVARVRKVLNEQGVIWQVATLGKVDQGGGGTIAKFFAERGSDVIDMGPALLGMHSPFEISSKADLFETYVAYRSLMEKL	soluble
MADRNLRDLLAPWVAGLPARELREMTLDSRVAAAGDLFVAVVGHQADGRRYIPQAIAQGVAAIIAEAKDEASDGEIREMHGVPVVYLSQLNERLSALAGRFYHEPSENMRLVAVTGTNGKTTTTQLLAQWSQLLGETSAVMGTVGNGLLGKVIPTENTTGSAVDVQHVLASLVAQGATFGAMEVSSHGLVQHRVAALKFAASVFTNLSRDHLDYHGDMAHYEAAKWMLYSTHHHGQAIVNADDEVGRRWLASLPDAVAVSMEGHINPNCHGRWLKAEAVEYHDRGATIRFASSWGEGEIESRLMGAFNVSNLLLALATLLALGYPLTDLLKTAARLQPVCGRMEVFTAPGKPTVVVDYAHTPDALEKALQAARLHCAGKLWCVFGCGGDRDKGKRPLMGAIAEEFADIVVVTDDNPRTEEPRAIINDILAGMLDAGQVRVMEGRAEAVTNAIMQAKDNDVVLIAGKGHEDYQIVGTQRLDYSDRVTAARLLGVIA	not soluble
MDGNAPEPRYWEKMRLVAEVLKAVEGPIYIATHVDPDGDAIGSSLGLYRALKALGKEAYWVADPPRFLRFLPKEEEYSDPVEKLPPGATLVALDSAEPSRVVGVPVEGFVINIDHHGTNPRFGHLHVVDPSKAATAQMVKDLIDLLGVEWTAEIATPVLTGILTDTGNFRFANTTPEVLRVAAELLGYGVKLAELTDRLQFRPPSYFRLMGQVLSTVAFHFGGLLVTAHLPEDAGAEEDSDDFVGLIRYVEGSVVSVFLRKREEGVKVSIRSRGGVSAQNIALKLGGGGHVPAAGATLKGLDLDQAYERVLEAVREELTRAGYL	soluble
MKDLIIIGAGQAGLTMGYYLKQEGYNFLLLEAGKRVGDSWRNRYDSLQLFTPRSYSSLPGMALIGEKNEFPYKDEIATYLEEYARHFQLPVQLQTEVLKIKKEKEIFELHTPTEILQTKKVIIASGAFQQPFIPSVSANLSSHIFQIHSSQYKSPSQIPKGKVLVVGGGNSGMQIAVELAKTHEVTVSISHPLTFLPLQLFGKSIFNLLEKVGLLYAEINTKRGRWFQKRKDPIFGFEGKKLIRNGAIKLQEKVVSASRNNIMFQNGDTYSAESIIWSTGFVQNYNWIEIEQAVNEKGFPNHIKGISPVKGLYYIGLPLEHHHHHH	not soluble
MPREESESPLLVYEDPRHTPYTPFKYARKDEEERSSGGGKSPPKKAPKAQDRMSLRDKFEAAPTTKKRKTAQDPADELLQAIKPLFNQVKKEMADQLADQLGRFNEQLDMAVNSFSDEIVKLKADHALAEKNVDTYAQKVSGMFQRADMMSANVQEQRTQQAEDNRMASKARDRIIYDIAQVATNMKTMSETIAKIDAREEQAAQKQAERHTPQGGQGSLEPALKCPLCKRHHAPENCTIIRNGLDRREEAEKIKMCIQCLEVGVTNDDWVHEGCPKEKEQCTRCTKYMKPGEIAQTHHNATFCLMLTSKQYKLERKGSPSDRDYSPKGRRGPIRSRHNRYGG	not soluble
SNAMLTFYEYPKCSTCRRAKAELDDLAWDYDAIDIKKNPPAASLIRNWLENSGLELKKFFNTSGQSYRALGLKDKLHQLSLDEAANLLASDGMLIKRPLLVKEGKIVQIGYRTAYEDLDF	soluble
MDRVESLANQIFEDYKDYGVDRKEIVEKLRKLLIEFRVPENEAVRTIRNYIIREYGAPATVRRERITKIEEIKEPNKWVTVKAKVIQLWESSSPSIAQVGLIGDETGYIRFLVWTKAKKQPVDEGKSYIFRNVVVDDYGGVLRLNVTKISEIEEIEEDVKVKPPEELSEDVEVVGALVAIQQNSGLIQRCSVEGCNRVIKMGKCPEHGKTKAKDDLRIKGVLDDGYRTYEVIINEEGVESLTGINLEKAKKIAEETLDRGAVLTELKKMLLGKYLRVVGTATPRYLIAKHVEFFRPDIRKEIEKVKALLEEV	not soluble
MAISVVDLFSIGIGPSSSHTVGPMRAALTYISEFPSSHVDITLHGSLAATGKGHCTDRAVLLGLVGWEPTIVPIDAAPSPGAPIPAKGSVNGPKGTVSYSLTFDPHPLPEHPNAVTFKGSTTRTYLSVGGGFIMTLEDFRK	not soluble
GPGSMYPGAVGCPWRRLDACVETSYSWALNVMSTNTSKAAVRQSKLTWDEGELTSARLKNDRNGKKARISASGSFRIRAMILACAPSSLAATPADNLPETASTLSFCEMLFNAGVAPLKTPAISSFEACTDVRVCVEAFKTGMPLFSSADEGASGNFFRYPPAAITTACSAETKLIDQSCFTRTTPFRHMGNAA	not soluble
MAHHHHHHMELPFQWDDGNFISPFLTSGDDTLRVLAAWLNDSPLLRFQHGGALRLTDLGCGDGSALLSLSAGLFTLWGASGCRDVSPLQLTAVGLDLDEELILAARRRAEAIIVPPPHRLHCVFETVDVRQLDAAQYFPLSESSRHVLFVYLLPEGLEAIREKLLEIISRVALLVSNRWEVPFLARWKRVKLQNLHLYQYVGDGAN	not soluble
